Measurements from PMC10632791.

These substances were tested against T1, DegU (Bacillus velezensis DMW1) (UniProt A3KLC2) (assay: EMSA). Conditions: MST: 50 mM Tris pH 7.5, 150 mM NaCl, 10 mM MgCl2, 0.05% Tween 20, 25 C.
T1 sequence: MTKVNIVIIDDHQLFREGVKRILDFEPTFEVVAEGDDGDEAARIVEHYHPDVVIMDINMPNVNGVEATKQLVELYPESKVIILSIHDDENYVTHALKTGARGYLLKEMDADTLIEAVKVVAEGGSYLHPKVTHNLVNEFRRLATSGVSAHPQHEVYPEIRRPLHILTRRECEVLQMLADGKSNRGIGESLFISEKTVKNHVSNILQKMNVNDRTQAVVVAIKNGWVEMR
“AGTGCTCTATGTAAAATAGAGTGCTTTTTTTGCGGTTTAATGAAATCATATTGCGAACATTCGGACCGTCTGTTTCGGTTCTTGCGCTGTTTTTTCCGGGTCAGCTTACGTACGTAAATTTTTTTCATTCTGCCATAACTGGATATTTGACAGATTTTCATTATAGTTTAAAGATTTTTAATTTTACGTAAATAATATTTTTGAAAATAAATTGCGGGATGCCGCAAAATACCCTCTGGATTCGTCGGATTTTTTTTCGGTGTGCCGCATGAAACTTTTCACCCATTTTTCG (double strand) [P01 (srfA promoter -328 to -36)]” was tested, and the binding was “no binding”.
For “ATGTGTGCGCCTCCCCTTTTTAAGATAAAGTTGTCAATTCTCCCTTAGAAACAGCCTCCCTCTATGTCCCTAACTCATTCTCAAGCCAAAAGAACCACTTACCTCCAAAAACGATCCCGATTCAATCACCGCCGAAATCCGTCATCCGTTCACCCGCGCAGTCCGAAATGCGGCATCAAATTTATGAGAAATCAAGACAAAAAGCCATTGATTGTAAGCACGAAAGGTTTACCTATTTCTGCATGTATTTCTATATATCTACTTACGTTCACTTTATATGAAAATATTGTTTTTATCAC (double strand) [P02 (srfA promoter -35 to +263)]”, the binding was “binds”.

Each substance was assayed on DegU (Bacillus velezensis DMW1) (assay: MST). Conditions: MST: 50 mM Tris pH 7.5, 150 mM NaCl, 10 mM MgCl2, 0.05% Tween 20, 25 C.
pfen gave a Kd of 1170 nM.
Work on psrfA yielded a Kd of 670 nM.
Substance pbae has a Kd of 110 nM.
pmln gave a Kd of 130 nM.
With pitu the Kd was 30 nM.
With pdfn the Kd was 140 nM.
